Data: the DeepSol protein solubility set

Assay: soluble on expression in E. coli; label from the status in PepcDB or PDB records

| Sequence | soluble on expression in E. coli |
| --- | --- |
| MGSDKIHHHHHHMTQNTTLRIGSGSGWWGDRVEPAERSARLGKLDYLCFETMAEATVSAAQVRKRRDPAFGGYDTYLDDRMRAVLPHCIAHGTRIISNQGWIHPLGAARRVAELCKELGLPDVKIAAVTTTDLTSSICELDLTLLESGEHVSTLRETLISAEPYEGVGPIVEALRAGAQIVVTGRVADPSLFLAPMIHHFGWQADDVARLARGSAIGHLLECGAQVTGGYFGDPGYKDVPEPWNLAFPIAEVEADGSAVISKVAGSGGRIDLQTVKEQMFYEVHDPRRYITPDVIVDFSTAVLEQVAPDRVRISGVSGLPRTDTLKVSLGCTEGHIGEDMFFYAGPGCLEKAKLAKRILEERFAMAALRADELRIDFLGVNAVHGAASPEPACEPNEIAVRVAARTRTREEAAKVGREIDSMAVCGLASTGKRVPHQDRTREIIGVWSALVPRALIRSQVQFV | not soluble |
| MGSDKIHHHHHHMIVTEHSTRPLGEEGLANYVQRLRGQLSLTQKELSFKAGIHIQTIRKIEGGQTNRLNQKAKGGLAAALGIPPEYLDAAAKKVSPETITTLKFCPKCWTPGTTPDQMWTDLRSKYCFACGTALRNRCVSCNEPIMSLKFKFCPYCGANYKQNQTTS | not soluble |
| MAAISFPLLQLPNFALNKTLKLMCVVPHLYLSIISKKAKRCITAVNEKPLYVHINKASSISLRLTTKSFQNFEFIITPGQSDLEIRKYITTRPLFNSYLSTNQCVLGVTAKQWIELIAQVFIQDKGVLLKLQNSNKFNIKEIQYYTRELNIVRLKIESSELQDTQLSKMFPKVEELTVTRDKIPSSILSRNFKKLRFDDIKVSLDNILISNCSSFLIFLQTLPDKDLNRFMKLWIKESNPNLKTFEVCFPDYEQTGLDGTILFKGIRCIDSIKHGEVTRKKFKRHDGTTALVSVFASTSFHFCMTVVG | not soluble |
| MQLTIKNKDLNTLYRVLDKIKITNMRANRGRAKLLAKVVDKINEYAKDETDLIDMYAAKDKDDKFVIDEHKNIKLADPAKLDELNDLLNELADEEIVIKGGEYSKRFIDFLNFLEECEDEFTSSEIILIDNILEQFEESKKGE | not soluble |
| AESLPDLKIEKLDEGVYVHTSFEEVNGWGVVPKHGLVVLVNAEAYLIDTPFTAKDTEKLVTWFVERGYKIKGSISSHFHSASTGGIEWLNSRSIPTYASELTNELLKKDGKVQATNSFSGVNYWLVKNKIEVFYPGPGHTPDNVVVWLPERKILFGGCFIKPYGLGNLGDANIEAWPKSAKLLKSKYGKAKLVVPSHSEVGDASLLKLTLEQAVKGLNESKKPSKPSN | soluble |
| MTFEMLYSKIHRATITDANLNYIG | soluble |
| MDANEKKEVIKKKYQEIAILGGSCCSGGCCGDSNSTDLSRSLGYSESDVQAVPDANMGLGCGNPTAFAELKPGDVVLDLGSGGGFDCFLAAQKIGSSGKVIGVDMTLEMVEKAQANARKYGYSNVEFRHGDIESLPVKDSSVDVIISNCVINLAPDKEKVFREAFRVLKPEGRMYISDMVLLDELPEELKNDSELLAGCIAGAVLKEEYLGLLKKAGFSVEILNEDLDISKRQYRDLPVESLKLKARVLEHHHHHH | soluble |
| MLPTTSSLQIGELAAGQALTLPIYHFKPSGKHSGPKVYIQANVHGAEVQGNAVIYQLMKQLERCDILGEITLVPLANPLGINQKSGEFTLGRFDPITGVNWNREYLNHAIDLPTWYKEHAELSDSELIQAYRSTLVEACQRRLRNDWGVTTGHRLAVNLQAMAHEADIVLDLHTGPKSCKHLYCPEYDIASAQFFAIPYTLVIPNSFGGAMDEAAFCPWWQLSEVAKVMGRDLEIAVSAFTLELASQERICLEDALVDAKGILAYLSHRGVIAEQVEPAKMRRFGCYLKDYKKYHAPMAGLVEYVAPVGEPLAAGETLVNLLRLDLYGSEQELTALSLPQDCVPILHFASASVHQGTELYKVMTNLFELPH | soluble |
| MSKPGQTILVALRKMIASGELAAGERLMEVPTAELFGVSRMPVRMAFRTLEQEGLLVPFGGRGFQVRSISPQEIAGAVDVRGVLEGLAARQMAERGLTQDARDALEACLVQGDALFDKGYVTEDDLEVYHDMNMRLHQVIVAGSGNRAIADALARNDHLPFASVTALAVDRHNLIREYRRFNFAHMQHHAVVDALINGQGARAEALMREHANATLRYADIFGAGVHERMKVIQRPD | not soluble |
| MQHKLIAFIGGGNMAQAIILGLLKQGYPAEQIIVNDPNEEKRAFFANLDVATSENNVGSAIKAEVVLLAVKPQMMAEVCSPLSAVDFSDKLLISIAAGISTERLNALIPSVKSIVRVMPNTPALVGEGMAGLFAPKNTSENYRTFAQDLLGAVGRTVWVNDETQMHAVTAASGSSPAYFFLMLEAMQKALIKMNIDEKTARELVQQSMLGAAKMVTENPQIALSTLRENVTSKGGTTAAALAVFDAQHFNQTIEQAMQACLSRSQEMETLF | soluble |
| MSLGRGLYFNQAQKHFQQLLLMEERATIARELHDSLAQVLSYLRIQLTLLKRSIPEDNATAQSIMADFSQALNDAYRQLRELLTTFRLTLQQADLPSALREMLDTLQNQTSAKLTLDCRLPTLALDAQMQVHLLQIIREAVLNAMKHANASEIAVSCVTAPDGNHTVYIRDNGIGIGEPKEPEGHYGLNIMRERAERLGGTLTFSQPSGGGTLVSISFRSAEGEESQLMEGHHHHHH | soluble |
| MGSDKIHHHHHHMLLTTRPPSPDSIPCCAGCSMARVCLAGNCDSDGEGPADGLAQRVIRLRKGEPLYLLGDPLAALFAVRVGTVKTHVATEDGRTQVVGFHFPGEVVGLDSIGRRQYASYATALEDTKVCMIPMDVLRPLAACTPALASRVFRALDGYAQRTRALQTLLALMTAEERLVTFLLWISEGLAARGFSSSEFILRMSREEIGSYIGLTLETVSRQFSRLAECGLIRVKHRSVALVDKAGLRAIADRSAISPIPPGTNRRRGGEQRVPAQALRTSAPAWATRTQPATAAMQADNPKINPFAWEAGNGQQ | not soluble |
| MILFGTGGIRGVMRKGEFDEETVKRASLSTALWLKEKGQKSVVIAYDTRKNSKEFAELAGRVFAGEGIEAYVFPEPTPTPVLSFAVRYMKTGGGVVITASHNPPEYNGYKVYTWDGVQAIPEYTNEITEIYKKVDLSHVKEGEIKFVPPEVKESYIKAVLEIVSNLPMKTDLDIAYSPLHGTGANYVPEVLKRLGFKVRLVEEQMKPDPNFSTVPTPNPEEDEALVLLNKKGATLGLATDPDCDRVGVVFKGRRLTGNQVGVLLTDFLLDHVKVENPLVIKTIVTTDMVRPICEEKGAFLEETPTGFKFIGHLIEEHTKKGDRNFVFGFEESCGYLAGNHARDKDGVVGSVLSAVAFSNYDPYEKLEELYQKYGYYMEKLINFKFEDVDRAVEIYRSLKNYDGIIDYSKGYGNVIPNETIAFVFEKSRIFVRPSGTEPKLKVYIHVRGDTREEAEELMKESESKIKEILKL | soluble |
| GMEEINKYIQNSSETGGEIYNLIEELFPICRSITGNGVRKTMDIIRKHIPLEIHEVKSGTKVFDWTVPKEWNIKDAYVRNSKGEKVIDFKENNLHVMSYSVPVHKTMTLDELKPYLHTIPGNKDRIPYLTSYYKENWGFSLTQNKFDELCDDDYEVVIDSSLEDGSLTYGEYYIRGELEEEILLTTYTCHPSMCNDNLSGVALITFIAKALSKLKTKYSYRFLFAPETIGSITWLSRNEDKLKNIKMGLVATCVGDAGIKNYKRTKFGDAEIDKIVEKVLMHCGSEYYVADFFPWGSDERQFSSPGINLSVGSLMRSCYGFDGYHTSADNLCYMNKDGLADSYKTYLEVIYTIENNRTYLNLNPKCEPQLGKRGIYRMIGGGSDYPFDEFAMFWVLNMSDGKNSLLDIAYKSGMEFRRIKYAADALYRVELLKLV | soluble |
| QDVIVRTAVAEDVAPIIKMRKHIKEFGSRDENEELIIRQIEKGVKRIYYIEQDQEVVAVAETSAENSFSAMITGVATSDGYRQRGFASTLLKKLCCDVLAEGKKPCLFYDNPVAGEIYHRLGFEHTGDFVMYK | not soluble |
| MGSDKIHHHHHHMKIAHVAPLYESVPPRLYGGTERIISYLTEALVDLGHDVTLFASGDTKTSAKLVPCRERALRLDPRPLKSEIAAHLSMLDEVRKRADDFDVIHFHLSHFLHFPFFRDMPQRTVTTPHGRLDYADLAQAYDRFPRFPMVSISRSQRARFASANWLATIHHGLPVDLYEPDFEAGSDGGYLAFLGRMSRDKRPDRAIEIARRTGLKLKLAAKIGDGDRAYFEEVVQPMIDGDRVEYVGEIGEDQKSRFLGNAAALLFPIDWPEPFGLAVIEAMACGTPVMAWSCGAMPEIVDYGVTGFVVETIEDAVATMPALLQLDRRRIRAVFERRFSADRMARDYVEAYSRLRNGHEQSRAS | not soluble |
